Assays:
[1] = target: human Chk2 kinase (Homo sapiens, UniProt O96017); experiment: In vitro phosphorylation (kination) of membrane-immobilized peptides by human Chk2 kinase (Gst-Chk2); assay type: biochemical; design: key to phosphorylation signal by human Chk2 kinase (graded) / in vitro phosphorylation by human Chk2 kinase (graded signal): a “+++” indicates the peptide was relatively highly phosphorylated; a “++” indicates the peptide was relatively less phosphorylated; a “+” indicates the peptide was detectably significantly phosphorylated over negative control; no indication indicates that a peptide was not significantly phosphorylated over negative control; conditions: for in vitro phosphorylation by human Chk2 kinase (graded signal) / phosphorylation signal by human Chk2 kinase (graded): γ-33P-ATP, RT 1 hr; for in vitro phosphorylation by human Chk2 kinase (graded signal): image analyzer signal graded −; for phosphorylation by human Chk2 kinase (in words) / phosphorylation signal by human Chk2 kinase (graded): peptide on membrane, Gst-Chk2
Chain of human Chk2 kinase (O96017 whole entry): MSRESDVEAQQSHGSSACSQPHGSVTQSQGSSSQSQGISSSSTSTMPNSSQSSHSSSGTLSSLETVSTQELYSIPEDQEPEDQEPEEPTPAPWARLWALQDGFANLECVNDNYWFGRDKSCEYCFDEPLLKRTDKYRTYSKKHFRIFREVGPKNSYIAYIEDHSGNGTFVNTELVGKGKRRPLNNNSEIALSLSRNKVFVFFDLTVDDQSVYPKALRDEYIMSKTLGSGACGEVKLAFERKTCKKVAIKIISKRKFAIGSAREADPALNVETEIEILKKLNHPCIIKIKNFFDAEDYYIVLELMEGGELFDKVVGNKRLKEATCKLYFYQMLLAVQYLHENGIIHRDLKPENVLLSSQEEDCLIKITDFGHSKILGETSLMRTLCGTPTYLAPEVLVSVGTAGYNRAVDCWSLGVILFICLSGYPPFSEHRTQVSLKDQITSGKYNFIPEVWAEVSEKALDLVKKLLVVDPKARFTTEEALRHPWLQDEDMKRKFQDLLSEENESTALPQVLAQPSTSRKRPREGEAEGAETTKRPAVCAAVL
Experimental: Exemplary peptides were directly synthesized (immobilized) on a membrane and contacted with human Chk2 kinase. Specifically, oligo-peptides with all sequences predicted by the 3-dimensional model were directly synthesized on a membrane by using an auto-spot-peptide-synthesizer, Model ASP-22 2 (ABiMED, Germany). The amount of peptide was about 0.1 micro-mol/cm^2.
The membrane was incubated with 2% Gly-Gly in PBS for 2 hours (hr) at room temperature (RT). Then, they were washed three times with 0.1% Tween-P BS™. The “kination,” or “phosphorylation,” reaction was performed with a recombinant fusion protein Gst-Chk2 at a concentration of about 5 μg in 4 ml reaction buffer, 1 mM MgCl2, 2% Gly-Gly and γ-^33P-ATP in PBS at RT for 1 hr. After the reaction, the membrane was washed 5 times with RIPA (1% SDS, 1% NP-40, 100 mM NaCl) and analyzed with a Bass 2500™ image analyzer (Fuji, Japan).
The following Table 1 is a complete list of tested peptides and results of the in vitro phosphorylation by human Chk2 kinase assay.
The following example describes studies which identified exemplary G2 checkpoint-abrogating peptides of the invention. The following peptides of the invention were synthesized directly on membranes and tested in in vitro phosphorylation (“kination” assays, as described above.
These peptides were tested in in vitro kination reactions. The oligopeptides were used as phosphorylation substrates; added kinases are involved in the cell cycle G2 checkpoint. Thus, a substance that inhibits the kination reaction can be a cell cycle 62 checkpoint abrogator. For the detection of the phosphorylation status of substrates in this screening method, isotope-labeled ATP and anti-phospho-peptides antibody can be used.

[2] = system: histone H1 kinase activity; experiment: Histone H1 kinase assay on lysates of treated Jurkat cells; assay type: cell-based, human; conditions: FIG. 2B; bleomycin 10 μg/ml or hydroxyurea 100 μg/ml; 6 hr
Experimental: Histone H1 kinase assay. Ten million Jurkat cells were treated with hydroxyurea (100 μg/ml), bleomycin (10 μg/ml), or colchicine (5 μg/ml) with or without addition of TAT-S216A, TAT-S216 or TAT-Control (10 μM) for 6 hr. The cells were washed in cold PBS and lysed at 4° C. in 1 ml of buffer A (50 mM Tris pH 8, 2 mM DTT, 5 mM EDTA, 100 mM NaCl, 0.5% NP40, 20 mM Na3V04, 50 mM NaF, 4 μM Okadaic acid, 5 μg/ml aprotinin, 5 μg/ml pepstatin A and 5 μg/ml leupeptin.). Twenty microliter of p13^suc1 agarose beads (Upstate Biotechnology., Saranac, N.Y.) were added to the cleared lysates, incubated for 4 hr at 4° C., and washed five times with buffer A without 5 mM EDTA, 20 mM Na3V04, 50 mM NaF, 4 μM Okadaic acid. Histone HI kinase activity on the beads were analyzed by using Cdc2 kinase assay kit (Upstate Biotechnology) with [γ-^32P] ATP, followed by 12% SDS-PAGE electrophoresis, and autoradiographed to detect the phosphorylated Histone H1.
The cell cycle status of the cells treated with TAT-S216A or TAT-S216 upon the DNA damage-induced G2 arrest was analyzed by FACS analysis. Histone H1 kinase activities of theses cells were simultaneously monitored. […] Results are shown in FIG. 2: abrogation of DNA damage-induced G2 arrest by TAT-S216A and TAT-S216 peptides. FIG. 2A, FACS analysis of Jurkat cells treated with bleomycin and peptides. Cells were treated with bleomycin (10 μg/ml) with or without peptides (10 μM) for 20 hr. B, histone H1 kinase analysis. Cell lysates were prepared from the cells treated with the indicated reagent for 6 hr. Concentrations used were: hydroxyurea (HU), 100 μg/ml; bleomycin (Bleo), 10 μg/ml; colchicine, 5 μg/ml; TAT-S216A and TAT-S216, 10 μM. C, FACS analysis of colchicine -and peptide-treated cells. Jurkat cells were treated with colchicine (5 μg/ml) with or without peptide (10 μM) for 20 hr.

[3] = peptide synthesized on membrane, about 0.1 micro-mol/cm^2, Gst-Chk2 about 5 μg in 4 ml
[4] = peptide synthesized on membrane (about 0.1 micro-mol/cm^2), Gst-Chk2 about 5 μg in 4 ml reaction buffer

Molecule	in vitro phosphorylation by human Chk2 kinase (graded signal) [1, 4]	other results
1124 (WYRSPSMYENL) [compound 1124]	–	in vitro phosphorylation by human Chk2 kinase (graded signal) [1, 3]: ++
1125 (WYRSPSMWENL) [compound 1125]	–	in vitro phosphorylation by human Chk2 kinase (graded signal) [1, 3]: ++
1127 (WYRSPSFPENL) [compound 1127]	–	in vitro phosphorylation by human Chk2 kinase (graded signal) [1, 3]: ++
1128 (WYRSPSFFENL) [compound 1128]	–	in vitro phosphorylation by human Chk2 kinase (graded signal) [1, 3]: ++
1129 (WYRSPSFYENL) [compound 1129]	–	in vitro phosphorylation by human Chk2 kinase (graded signal) [1, 3]: +++
1130 (WYRSPSFWENL) [compound 1130]	–	in vitro phosphorylation by human Chk2 kinase (graded signal) [1, 3]: ++
1132 (WYRSPSYPENL) [compound 1132]	–	in vitro phosphorylation by human Chk2 kinase (graded signal) [1, 3]: ++
1134 (WYRSPSYYENL) [compound 1134]	–	in vitro phosphorylation by human Chk2 kinase (graded signal) [1, 3]: ++
1212 (WYTSPSYPENL) [compound 1212]	–	in vitro phosphorylation by human Chk2 kinase (graded signal) [1, 3]: ++
NC(=O)NO [hydroxyurea, Hydroxyurea]	–	histone H1 kinase activity on treatment with drug alone [2]: decreased
L Y R S P S Y Y E N L (LYRSPSYYENL)	–	phosphorylation by human Chk2 kinase (in words) [1]: best phosphorylation substrates
LFTSPSYWENL	+	–
LYHSPSYFENL	+	–
LYRSPSAMPENL	–	phosphorylation signal by human Chk2 kinase (graded) [1]: +
LYRSPSHFENL	+	–
LYRSPSHPENL	+	–
LYRSPSHWENL	+	–
LYRSPSNPENL	+	–
LYSSPSFFENL	+	–

Molecule	in vitro phosphorylation by human Chk2 kinase (graded signal) [1, 4]	other results
LYSSPSFWENL	+	–
LYSSPSHYENL	++	–
LYSSPSMWENL	+	–
LYSSPSQWENL	+	–
LYSSPSYFENL	+	–
LYSSPSYPENL	+	–
LYSSPSYYENL	+	–
LYTSPSFPENL	++	–
LYTSPSFYENL	++	–
LYTSPSHPENL	+	–
LYTSPSHYENL	+	–
LYTSPSMFENL	++	–
LYTSPSMPENL	++	–
LYTSPSNPENL	+	–
LYTSPSNYENL	+	–
LYTSPSYPENL	++	–
LYTSPSYWENL	++	–
RYSLPPELSNM	+	phosphorylation signal by human Chk2 kinase (graded) [1]: +
W Y T S P S Y F E N L (WYTSPSYFENL)	–	phosphorylation by human Chk2 kinase (in words) [1]: best phosphorylation substrates

Further lines, with some results ahead:

in vitro phosphorylation by human Chk2 kinase (graded signal) [1, 4]	Molecule	other results
+	LFTSPSYFENL	–
+	LFTSPSYPENL	–
+++	LFTSPSYYENL	–
+	LYHSPSYPENL	–
+	LYHSPSYWENL	–
+++	LYHSPSYYENL	–
+	LYRSPSHYENL	–
+	LYRSPSMPENL	–
+	LYRSPSNWENL	–
+	LYRSPSNYENL	–
+	LYRSPSYFENL	–
+	LYRSPSYWENL	–
+	LYRSPSYYENL	–
+	LYSSPSFPENL	–
+	LYSSPSFYENL	–
++	LYSSPSHFENL	–
++	LYSSPSHPENL	–

in vitro phosphorylation by human Chk2 kinase (graded signal) [1, 4]	Molecule	other results
++	LYSSPSHWENL	–
+	LYSSPSMFENL	–
+	LYSSPSMPENL	–
+	LYSSPSMYENL	–
+	LYSSPSQPENL	–
+	LYSSPSYWENL	–
++	LYTSPSFFENL	–
++	LYTSPSFWENL	–
+	LYTSPSHFENL	–
+	LYTSPSHWENL	–
++	LYTSPSMWENL	–
++	LYTSPSMYENL	–
+	LYTSPSNFENL	–
+	LYTSPSNWENL	–
++	LYTSPSYFENL	–
+++	LYTSPSYYENL	–

— patent publication US7851592B2, “Compositions and methods for inhibiting G2 cell cycle arrest and sensitizing cells to DNA damaging agents” (CanBas Co. Ltd., priority 1999, dated 2010)
